The source of these data is US20240043568A1 (KEYMED BIOSCIENCES, published 2024).

Substitutions are numbered along the chain they refer to.

One may read the EC50 as the concentration needed to bring the measured effect to its halfway point.

In experiment [1] the target is T1, human CD3 on T cells (human, UniProt P07766 23-207).
T1 construct: whole, on cells; The target is the native CD3 complex on cells; The recombinant antigen used elsewhere is the εγ heterodimer; also called CD3 on Jurkat cells; CD3 on human peripheral blood CD4+ and CD8+ T cells
Briefly: flow cytometry, human peripheral blood CD4+ T cells. The protocol:
(§1) Fresh human peripheral blood was taken and PBMCs were isolated by Ficoll-Paque Plus (GE, 17-1440-03). The PBMCs were adjusted to 5×10⁵ cells/mL with 4% calf serum (Hyclone, SH30626.06), and added to a 96-well U-plate at 100 μL/well. The centrifuged supernatant was discarded. 100 μL of gradient diluted antibody (initial concentration: 1800 nM, 3-fold dilution, 11 gradients) was added to each well and incubated at 4° C. for 60 minutes. The secondary antibody Alexa Fluro647 labeled goat anti-human IgG Fc (1:300 dilution) was added at 50 μL/well and incubated on an ice bath for 20 min. After washing once, PI solution was added at 50 μL/well. Incubation was performed for 5 min before detection by flow cytometry (BD Celesta). The GPC3×CD3κλ bispecific antibody can bind to the human peripheral blood T cell with low affinity.

The target of the next experiment is T2, human GPC3 on cells (human, UniProt P51654 25-563).
T2 construct: whole, on cells; One molecule is used for both CHO-hGPC3 transfectants and GPC3+ HepG2 cells; The assay field names the cell; also called CHO-hGPC3 (clone 2B10); CHO-human GPC3
Briefly: flow cytometry, HepG2 cells. The protocol:
HepG2 cells in the logarithmic growth phase were taken, added with 200 μg/mL of murine IgG (Jackson ImmunoResearch, 115-005-03), and blocked on an ice bath for 30 min. The cells were adjusted to 5×10⁵ cells/mL with 4% calf serum and added to a 96-well U-shaped plate at 100 μl/well. The centrifugation was performed at 300 g for 5 min. The supernatant was discarded. 100 μL of gradient diluted antibody (initial concentration: 1800 nM, 3-fold dilution, 10 gradients) was added to each well, and incubated at 4° C. for 60 min. The primary antibody was washed, added with Alexa Fluro647 labeled goat anti-human IgG Fc (1:300 dilution) 50 μL/well, and incubated on ice for 20 min. After washing once, PI solution was added at 50 μL/well. Incubation was performed for 5 min before detection by flow cytometry. The GPC3×CD3κλ bispecific antibody can bind to GPC3+ tumor cell HepG2 with high affinity.
On the technique in general: A flow cytometer gives signals particle by particle.

For experiment [2], the target named is T1, human CD3 on T cells. Briefly: flow cytometry, human peripheral blood CD8+ T cells. How it is done:
as §1

The next experiment has as its target T3, FcγRI with His tag (UniProt P12314 16-288).
T3 construct: Bought protein; also called FcγRI (Sino Biological #10256-H08H)
Briefly: SPR, His-tagged FcγRI captured by anti-His antibody on the chip, antibody as analyte [row FcγRI, column GPC3×CD3 κλ002]. The protocol:
(§2) 50 μg/mL His-Tag antibodies were conjugated to a CMS chip through amino groups, and recombinant proteins FcγRI, FcγRIIAH131, and FcγRIIIAV158 with His tags (Sino Biological, #10256-H08H/10374-H08H1/10389-H08H1) were respectively captured for a capture time of 40 s at a flow rate of 10 μL/min. After the baseline was stable, the gradient-diluted antibody (the initial concentration of 37.5 μg/mL, 2-fold dilution) flowed through the chip at a flow rate of 30 μL/min, with a binding time of 120 s and a dissociation time of 200 s. The affinity constants were obtained by fitting them with Biacore evaluation software. It can be seen from FIG. 22 that the GPC3×CD3κλ bispecific antibody has no binding to FcγRI, FcγRIIAH131, and FcγRIIIAV158; The wild-type IgG4 control antibody can bind to FcγRI with high affinity and weakly bind to Fcγ RIIAH131.
(SPR reads the build-up and loss of mass on a sensor chip optically.)

For experiment [3], the target named is T4, cynomolgus monkey GPC3 on CHO cells (cynomolgus monkey, UniProt A0A2K5VK50 24-579).
T4 construct: whole, on cells; also called CHO-cynoGPC3 (clone 4D6); CHO-cynomolgus monkey GPC3
Briefly: flow cytometry, CHO-cynomolgus monkey GPC3 cells. The protocol: CHO-human GPC3 and CHO-cynomolgus monkey GPC3 stably-transfected cells in the logarithmic growth phase were taken, adjusted to 5×10⁵ cells/ml using 4% calf serum (Hyclone, SH30626.06), and added to a 96-well U-shaped plate at 100 μl/well cell suspension. The centrifugation was performed at 300 g for 5 min. The supernatant was discarded. 100 μL of gradient diluted antibody (initial concentration: 1800 nM, 3-fold dilution, 10 gradients) was added to each well, and incubated at 4° C. for 60 min. The secondary antibody Alexa Fluro647 labeled goat anti-human IgG Fc (1:300 dilution) was added at 50 μL/well and incubated on ice for 20 min. After washing once, propidium iodide solution (1:300) was added at 50 μL/well. Incubation was performed for 5 min before detection by flow cytometry.

The target in experiment [4] is T5, FcγRIIAH131 with His tag (UniProt P12318 34-218).
T5 construct: Bought protein; also called Fcγ RIIAH131 (Sino Biological #10374-H08H1)
T5 sequence (looked up): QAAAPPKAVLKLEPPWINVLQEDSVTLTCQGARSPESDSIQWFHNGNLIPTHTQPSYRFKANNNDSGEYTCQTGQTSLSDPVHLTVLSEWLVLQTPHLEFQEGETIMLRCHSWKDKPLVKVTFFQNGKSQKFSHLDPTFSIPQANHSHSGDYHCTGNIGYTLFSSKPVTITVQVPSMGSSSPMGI
Briefly: SPR, His-tagged FcγRIIAH131 captured by anti-His antibody on the chip, antibody as analyte [row FcγRIIAH131, column GPC3×CD3 κλ002]. How it is done: as §2

Experiment [5] has as its target T6, FcγRIIIAV158 with His tag (UniProt P08637 17-208).
T6 construct: Bought protein; also called FcγRIIIAV158 (Sino Biological #10389-H08H1)
Briefly: SPR, His-tagged FcγRIIIAV158 captured by anti-His antibody on the chip, antibody as analyte [row FcγRIIIAV158, column GPC3×CD3 κλ002]. How it is done: as §2

Experiment [6] concerns the target T5, FcγRIIAH131 with His tag. Briefly: SPR, His-tagged FcγRIIAH131 captured by anti-His antibody on the chip, antibody as analyte [row FcγRIIAH131, column GPC3×CD3 κλ003]. How it is done: as §2
The target in experiment [7] is T6, FcγRIIIAV158 with His tag. Briefly: SPR, His-tagged FcγRIIIAV158 captured by anti-His antibody on the chip, antibody as analyte [row FcγRIIIAV158, column GPC3×CD3 κλ003]. The protocol:
as §2

T6 sequence (P08637 17-208 F176V limits assumed): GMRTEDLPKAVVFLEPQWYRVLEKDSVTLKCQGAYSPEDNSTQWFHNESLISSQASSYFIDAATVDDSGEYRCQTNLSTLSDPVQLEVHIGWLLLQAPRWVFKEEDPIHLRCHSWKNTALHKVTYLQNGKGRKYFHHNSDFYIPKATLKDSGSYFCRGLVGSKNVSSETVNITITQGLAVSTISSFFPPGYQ
T3 sequence (P12314 16-288 limits assumed): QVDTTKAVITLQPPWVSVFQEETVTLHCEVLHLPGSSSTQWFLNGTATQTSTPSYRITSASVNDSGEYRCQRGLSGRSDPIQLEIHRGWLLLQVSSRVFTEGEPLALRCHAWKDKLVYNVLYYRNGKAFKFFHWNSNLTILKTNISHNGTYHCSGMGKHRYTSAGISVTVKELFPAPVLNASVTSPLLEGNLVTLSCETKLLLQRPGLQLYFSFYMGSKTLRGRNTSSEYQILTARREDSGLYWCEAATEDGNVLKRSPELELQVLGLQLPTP

B1: GPC3×CD3 κλ002 (bispecific antibody, human IgG4 S228P, kappa, lambda)
light 1: DVVMTQSPLSLPVTPGEPASISCRSSQSIVHSNGNTYLEWYLKKPGQSPQLLIYKVSNRFSGVPDRFSGSGSGTDFTLKISRVEAEDVGVYFCLQVTHVPLTFGQGTKLEIKRTVAAPSVFIFPPSDEQLKSGTASVVCLLNNFYPREAKVQWKVDNALQSGNSQESVTEQDSKDSTYSLSSTLTLSKADYEKHKVYACEVTHQGLSSPVTKSFNRGEC
heavy 1: QVQLVQSGAEVKKPGSSVKVSCKASGYTFADYEIHWVREAPGQGLEWMGAIHPGSGGTAYAQKFQGRVTLTADESSTTAYMELSSLRSEDTAVYYCTRYYSFAYWGQGTLVTVSSASTKGPSVFPLAPCSRSTSESTAALGCLVKDYFPEPVTVSWNSGALTSGVHTFPAVLQSSGLYSLSSVVTVPSSSLGTKTYTCNVDHKPSNTKVDKRVESKYGPPCPPCPAPEFEGGPSVFLFPPKPKDTLMISRTPEVTCVVVDVSQEDPEVQFNWYVDGVEVHNAKTKPREEQFNSTYRVVSVLTVLHQDWLNGKEYKCKVSNKGLASSIEKTISKAKGQPREPQVCTLPPSQEEMTKNQVSLSCAVKGFYPSDIAVEWESNGQPENNYKTTPPVLDSDGSFFLVSKLTVDKSRWQEGNVFSCSVMHEALHNHYTQKSLSLSLGK
light 2: QAVVTQEPSLTVSPGGTVTLTCRSSTGAVTTSNYANWVQEKPGQAPRGLIGGTNKRAPWTPARFSGSLLGGKAALTITGAQAEDEAEYYCVLWYSNLWVFGGGTKLTVLGQPKAAPSVTLFPPSSEELQANKATLVCLISDFYPGAVTVAWKADSSPVKAGVETTTPSKQSNNKYAASSYLSLTPEQWKSHRSYSCQVTHEGSTVEKTVAPTECS
heavy 2: EVQLVESGGGLVQPGGSLRLSCAASGFTFNTYAMNWVRKAPGKGLEWVGRIRSKYNNYATYYADSVKDRFTISRDDSKNSLYLQMNSLKTEDTAVYYCVRHGNFGNSYVSWFAYWGQGTLVTVSSASTKGPSVFPLAPCSRSTSESTAALGCLVKDYFPEPVTVSWNSGALTSGVHTFPAVLQSSGLYSLSSVVTVPSSSLGTKTYTCNVDHKPSNTKVDKRVESKYGPPCPPCPAPEFEGGPSVFLFPPKPKDTLMISRTPEVTCVVVDVSQEDPEVQFNWYVDGVEVHNAKTKPREEQFNSTYRVVSVLTVLHQDWLNGKEYKCKVSNKGLASSIEKTISKAKGQPREPQVYTLPPCQEEMTKNQVSLWCLVKGFYPSDIAVEWESNGQPENNYKTTPPVLDSDGSFFLYSKLTVDKSRWQEGNVFSCSVMHEALHNHYTQKSLSLSLGK
notes: also called GPC3 x CD3 κλ002; GPC3×CD3κλ bispecific antibody
Consider B1, for which the concentration giving a half-maximal response (EC50) in the experiment with human CD3 on T cells [1] was determined as 65 nM; with human GPC3 on cells it was 2.1 nM; in the experiment with human CD3 on T cells [2], 65 nM; in experiment [3], 3 nM. For the same molecule, the binding result (with FcγRI with His tag; with FcγRIIAH131 with His tag [4]; in [5]) was “no binding” in each case.

B2: GPC3×CD3 κλ003 (bispecific antibody, human IgG4 S228P, kappa, lambda)
light 1: B1 light 1 with E128K, Q129K
heavy 1: B1 heavy 1 with K145E, K211E
light 2: B1 light 2
heavy 2: B1 heavy 2
notes: also called GPC3 x CD3 κλ003; GPC3×CD3κλ bispecific antibody
For the molecule B2, the half-maximal effective concentration (EC50) is 56 nM with human CD3 on T cells [1], 2.5 nM with human GPC3 on cells, 69 nM with human CD3 on T cells [2] and 3 nM in [3]. For the same molecule, the binding result (with FcγRIIAH131 with His tag [6]; in experiment [7]) was “no binding” throughout.
